The target in experiment [1] is T1, Recombinant Human DLL4 (R&D Systems Cat#1506-D4/CF) (human, UniProt Q9NR61 27-524).
T1 construct: Bought recombinant protein; also called delta-like protein 4; rHuman DLL4
Nature of the experiment: ECL multispot (MSD) assay, antigen spotted on plate, 10 nM Fab.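 Further: bound Fab detected with a TAG-labelled detection antibody (1 h, 20 °C), electrochemiluminescence read and compared with each well's blank, signal/blank of 4 or above scored as hit.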

The target in experiment [2] is T2, rHuman P-Cadherin/Fc Chimera, CF (R&D Systems Cat#861-PC) (human, UniProt P22223 108-654).
T2 construct: Bought recombinant Fc chimera; Fc part of the bought chimera not given
The experiment is described as above.

Experiment [3] addresses T3, rHuman ErbB2/Fc Chimera, CF (R&D Systems Cat#1129-ER) (human, UniProt P04626 23-652).
T3 construct: Bought recombinant Fc chimera; also called human epidermal growth factor 2 receptor; Fc part of the bought chimera not given
Described as above.

For experiment [4], the target named is T4, rHuman CD44/Fc Chimera, CF (R&D Systems Cat#3660-CD) (human, UniProt P16070 21-220).
T4 construct: Bought recombinant Fc chimera; Fc part of the bought chimera not given
Described as above.

The target in experiment [5] is T5, rHuman IGF-1 sR, CF (R&D Systems Cat#391-GR) (human, UniProt P08069 31-932).
T5 construct: Bought soluble receptor; also called insulin-like growth factor-1 soluble receptor
Described as above.

Experiment [6] has as its target T6, rHuman Notch-1/Fc Chimera, CF (R&D Systems Cat#3647-TK) (human, UniProt P46531 19-526).
T6 construct: Bought recombinant Fc chimera; Fc part of the bought chimera not given
Described as above.

Experiment [7] has as its target T7, rHuman EGF R/Fc Chimera, CF (R&D Systems Cat#344-ER) (human, UniProt P00533 25-645).
T7 construct: Bought recombinant Fc chimera; also called epidermal growth factor receptor; Fc part of the bought chimera not given
The experiment is described as above.

Experiment [8] has as its target T8, rHuman HGF R/c-MET/Fc Chimera, CF (R&D Systems Cat#358-MT/CF) (human, UniProt P08581 25-932).
T8 construct: Bought recombinant Fc chimera; also called HGF R/Fc; hepatocyte growth factor receptor; Fc part of the bought chimera not given
The description is as above.

In experiment [9] the target is T9, rHuman Erythropoietin R/Fc Chimera, CF (R&D Systems Cat#963-ER) (human, UniProt P19235 25-250).
T9 construct: Bought recombinant Fc chimera; also called EPO R; EPO R/Fc; Fc part of the bought chimera not given
T9 sequence (looked up): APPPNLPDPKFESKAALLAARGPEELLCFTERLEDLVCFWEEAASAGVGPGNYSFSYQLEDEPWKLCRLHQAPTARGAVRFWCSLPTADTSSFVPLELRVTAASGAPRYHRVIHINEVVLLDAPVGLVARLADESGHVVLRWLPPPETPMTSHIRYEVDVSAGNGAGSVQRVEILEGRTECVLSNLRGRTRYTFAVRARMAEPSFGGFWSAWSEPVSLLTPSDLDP
The description is as above.

Experiment [10] has as its target T10, rHuman ErbB2/Fc Chimera, CF (human, UniProt P04626 23-652).
T10 construct: Bought from R&D Systems; also called human epidermal growth factor 2 receptor; not shown: Fc of the bought chimera
In words: ECL Multispot (MSD) assay; antigen spotted on plate, Fab in solution.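 Further: fab bound 1 h at 20 °C, detected by TAG-labelled antibody electrochemiluminescence, signal relative to each well's blank, ratio of 4 or more marks a hit.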

For experiment [11], the target named is T11, rHuman P-Cadherin/Fc Chimera, CF (human, UniProt P22223 108-654).
T11 construct: Bought from R&D Systems; not shown: Fc of the bought chimera
Described as above.

Experiment [12] concerns the target T12, rHuman HGF R/c-MET/Fc Chimera, CF (human, UniProt P08581 25-932).
T12 construct: Bought from R&D Systems; also called HGF R/Fc; hepatocyte growth factor receptor; not shown: Fc of the bought chimera
The experiment is described as above.

Experiment [13] addresses T13, rHuman CD44/Fc Chimera, CF (human, UniProt P16070 21-220).
T13 construct: Bought from R&D Systems; not shown: Fc of the bought chimera
The experiment is described as above.

The next experiment deals with T14, Recombinant Human DLL4 (human, UniProt Q9NR61 27-524).
T14 construct: Bought from R&D Systems; also called delta-like protein 4; rHuman DLL4
Described as above.

The target of experiment [14] is T15, rHuman EGF R/Fc Chimera, CF (human, UniProt P00533 25-645).
T15 construct: Bought from R&D Systems; also called epidermal growth factor receptor; not shown: Fc of the bought chimera
The description is as above.

Experiment [15] concerns the target T16, rHuman Notch-1/Fc Chimera, CF (human, UniProt P46531 19-526).
T16 construct: Bought from R&D Systems; not shown: Fc of the bought chimera
Described as above.

Experiment [16] deals with T17, rHuman Erythropoietin R/Fc Chimera, CF (human, UniProt P19235 25-250).
T17 construct: Bought from R&D Systems; also called EPO R; EPO R/Fc; not shown: Fc of the bought chimera
T17 sequence (looked up): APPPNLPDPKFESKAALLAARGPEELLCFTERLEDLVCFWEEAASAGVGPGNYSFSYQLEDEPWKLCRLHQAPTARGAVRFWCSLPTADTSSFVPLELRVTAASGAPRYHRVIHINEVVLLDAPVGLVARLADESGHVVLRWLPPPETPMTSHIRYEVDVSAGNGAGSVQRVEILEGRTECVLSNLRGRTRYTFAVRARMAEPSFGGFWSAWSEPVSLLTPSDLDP
The description is as above.

In experiment [17] the target is T18, rHuman IGF-1 sR, (IGF-1 sR), CF (human, UniProt P08069 31-932).
T18 construct: Bought from R&D Systems; also called insulin-like growth factor-1 soluble receptor
The experiment is described as above.

We go through eight molecules from patent publication US20120316071A1 (published 2012).

T12 sequence (P08581 25-932, change not shown): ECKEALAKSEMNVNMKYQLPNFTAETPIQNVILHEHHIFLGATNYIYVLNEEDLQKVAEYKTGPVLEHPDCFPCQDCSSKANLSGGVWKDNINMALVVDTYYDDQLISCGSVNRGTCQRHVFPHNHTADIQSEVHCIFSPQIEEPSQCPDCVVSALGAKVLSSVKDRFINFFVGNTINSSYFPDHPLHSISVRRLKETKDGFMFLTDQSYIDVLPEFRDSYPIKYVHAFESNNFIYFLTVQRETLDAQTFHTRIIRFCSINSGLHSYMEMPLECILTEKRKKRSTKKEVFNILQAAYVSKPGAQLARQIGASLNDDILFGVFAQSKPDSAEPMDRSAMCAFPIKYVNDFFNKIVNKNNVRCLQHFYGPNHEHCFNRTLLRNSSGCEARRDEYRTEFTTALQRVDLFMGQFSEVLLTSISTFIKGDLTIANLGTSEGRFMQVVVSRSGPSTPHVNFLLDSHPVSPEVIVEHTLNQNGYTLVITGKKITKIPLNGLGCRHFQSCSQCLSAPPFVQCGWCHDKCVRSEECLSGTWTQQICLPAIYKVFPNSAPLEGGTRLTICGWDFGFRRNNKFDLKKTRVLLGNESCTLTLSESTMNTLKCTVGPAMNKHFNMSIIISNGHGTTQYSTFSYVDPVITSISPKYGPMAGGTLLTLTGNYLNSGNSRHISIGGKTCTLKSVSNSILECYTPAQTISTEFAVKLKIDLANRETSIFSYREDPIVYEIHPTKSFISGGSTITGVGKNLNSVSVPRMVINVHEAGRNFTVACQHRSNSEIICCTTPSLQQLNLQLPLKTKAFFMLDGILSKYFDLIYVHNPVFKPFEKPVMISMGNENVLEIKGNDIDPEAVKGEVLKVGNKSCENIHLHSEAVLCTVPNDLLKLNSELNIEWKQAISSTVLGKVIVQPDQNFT
T8 sequence (P08581 25-932, change not shown): as above

B1: Fab VH1-46_IGHD6-6*01_IGHJ1*01 S102A/S103P/S104F/H111F T58A & L6_IGKJ1*01 (Fab, V domains shown)
VH: QVQLVQSGAEVKKPGASVKVSCKASGYTFTSYYMHWVRQAPGQGLEWMGIINPSGGSASYAQKFQGRVTMTRDTSTSTVYMELSSLRSEDTAVYYCAREEYAPFSAEYFQFWGQGTLVTVSS
VL: not shown
notes: Fab (CH1 with His6/Flag tags from Plasmid A, kappa CL from Plasmid C); also called APFF T58A
On to B1, for which the ECL signal turned out to be 47400 in [1]; 294 in [2]; 320 in experiment [3]; 318 in [4]; 271 in experiment [5]; 289 in [6]. Besides, the values for the ECL signal in experiment [7], in experiment [8] and in experiment [9] were 384, 304 and 329, respectively.

B2: Fab VH1-46_IGHD6-6*01_IGHJ1*01 S102A/S103P/S104F/H111F (APFF) & L6_IGKJ1*01 S28G (Fab, V domains shown)
VH: QVQLVQSGAEVKKPGASVKVSCKASGYTFTSYYMHWVRQAPGQGLEWMGIINPSGGSTSYAQKFQGRVTMTRDTSTSTVYMELSSLRSEDTAVYYCAREEYAPFSAEYFQFWGQGTLVTVSS
VL: EIVLTQSPATLSLSPGERATLSCRASQGVSSYLAWYQQKPGQAPRLLIYDASNRATGIPARFSGSGSGTDFTLTISSLEPEDFAVYYCQQRSNWPPWTFGQGTKVEIKR
notes: Fab made in E. coli; the variable domains were cloned into Plasmid A (CH1, His and Flag tags) and Plasmid C (kappa CL); also called APFF / S28G
As for B2, the ECL signal in [10] came to 334; in experiment [11], 491; in experiment [12], 333; in experiment [13], 436; with Recombinant Human DLL4, 183000; in experiment [14], 360. Besides, the results for the ECL signal in experiment [15], in experiment [16] and in [17] were 324, 494 and 360, respectively.

B3: Fab VH1-46_IGHD6-6*01_IGHJ1*01 S102A/S103P/S104F/H111F (APFF) & L6_IGKJ1*01 (Fab, V domains shown)
VH: QVQLVQSGAEVKKPGASVKVSCKASGYTFTSYYMHWVRQAPGQGLEWMGIINPSGGSTSYAQKFQGRVTMTRDTSTSTVYMELSSLRSEDTAVYYCAREEYAPFSAEYFQFWGQGTLVTVSS
VL: not shown
notes: Fab made in E. coli; the variable domains were cloned into Plasmid A (CH1, His and Flag tags) and Plasmid C (kappa CL); also called APFF / parent; H:APFF & L:wt
As to B3, the ECL signal in experiment [10] came to 333; in experiment [11] it was 368; in experiment [12] it was 432; in the experiment with Recombinant Human DLL4, 182000; in [14], 406; in experiment [17] it was 386.

B4: Fab VH1-46_IGHD6-6*01_IGHJ1*01 S102A/S103P/S104F/H111F (APFF) & L6_IGKJ1*01 S28F (Fab, V domains shown)
VH: QVQLVQSGAEVKKPGASVKVSCKASGYTFTSYYMHWVRQAPGQGLEWMGIINPSGGSTSYAQKFQGRVTMTRDTSTSTVYMELSSLRSEDTAVYYCAREEYAPFSAEYFQFWGQGTLVTVSS
VL: EIVLTQSPATLSLSPGERATLSCRASQFVSSYLAWYQQKPGQAPRLLIYDASNRATGIPARFSGSGSGTDFTLTISSLEPEDFAVYYCQQRSNWPPWTFGQGTKVEIKR
notes: Fab made in E. coli; the variable domains were cloned into Plasmid A (CH1, His and Flag tags) and Plasmid C (kappa CL); also called APFF / S28F
In the case of B4, the ECL signal was 242 in experiment [10]; 336 in [11]; 223 in experiment [12]; 402 in experiment [13]; 134000 in the experiment with Recombinant Human DLL4; 283 in experiment [14]. For the same molecule, the results for the ECL signal in [15], in experiment [16] and in experiment [17] were 367, 413 and 275, respectively.

B5: Fab VH1-46_IGHD6-6*01_IGHJ1*01 S102A/S103P/S104F/H111F (APFF) & L6_IGKJ1*01 S28A (Fab, V domains shown)
VH: QVQLVQSGAEVKKPGASVKVSCKASGYTFTSYYMHWVRQAPGQGLEWMGIINPSGGSTSYAQKFQGRVTMTRDTSTSTVYMELSSLRSEDTAVYYCAREEYAPFSAEYFQFWGQGTLVTVSS
VL: EIVLTQSPATLSLSPGERATLSCRASQAVSSYLAWYQQKPGQAPRLLIYDASNRATGIPARFSGSGSGTDFTLTISSLEPEDFAVYYCQQRSNWPPWTFGQGTKVEIKR
notes: Fab made in E. coli; the variable domains were cloned into Plasmid A (CH1, His and Flag tags) and Plasmid C (kappa CL); also called APFF / S28A
With B5, the ECL signal worked out at 348 in experiment [10]; 521 in experiment [11]; 377 in experiment [12]; 502 in [13]; 157000 with Recombinant Human DLL4; 351 in experiment [14]. Further, the ECL signal stood at 440 in [15], 424 in [16] and 378 in experiment [17].

B6: Fab VH1-46_IGHD6-6*01_IGHJ1*01 S102A/S103P/S104F/H111F (APFF) & L6_IGKJ1*01 S28L (Fab, V domains shown)
VH: QVQLVQSGAEVKKPGASVKVSCKASGYTFTSYYMHWVRQAPGQGLEWMGIINPSGGSTSYAQKFQGRVTMTRDTSTSTVYMELSSLRSEDTAVYYCAREEYAPFSAEYFQFWGQGTLVTVSS
VL: EIVLTQSPATLSLSPGERATLSCRASQLVSSYLAWYQQKPGQAPRLLIYDASNRATGIPARFSGSGSGTDFTLTISSLEPEDFAVYYCQQRSNWPPWTFGQGTKVEIKR
notes: Fab made in E. coli; the variable domains were cloned into Plasmid A (CH1, His and Flag tags) and Plasmid C (kappa CL); also called APFF / S28L
For B6, the ECL signal was determined as 222 in experiment [10]; 418 in experiment [11]; 317 in [12]; 365 in experiment [13]; 72300 in the experiment with Recombinant Human DLL4; 378 in experiment [14]. The ECL signal in experiment [15] is 392; in experiment [16], 404; in experiment [17], 346.

B7: Fab VH1-46_IGHD6-6*01_IGHJ1*01 S102A/S103P/S104F/H111F (APFF) & L6_IGKJ1*01 S28P (Fab, V domains shown)
VH: QVQLVQSGAEVKKPGASVKVSCKASGYTFTSYYMHWVRQAPGQGLEWMGIINPSGGSTSYAQKFQGRVTMTRDTSTSTVYMELSSLRSEDTAVYYCAREEYAPFSAEYFQFWGQGTLVTVSS
VL: EIVLTQSPATLSLSPGERATLSCRASQPVSSYLAWYQQKPGQAPRLLIYDASNRATGIPARFSGSGSGTDFTLTISSLEPEDFAVYYCQQRSNWPPWTFGQGTKVEIKR
notes: Fab made in E. coli; the variable domains were cloned into Plasmid A (CH1, His and Flag tags) and Plasmid C (kappa CL); also called APFF / S28P
Take B7: the ECL signal is 427 in experiment [10]; 605 in [11]; 318 in experiment [12]; 365 in experiment [13]; 178000 in the experiment with Recombinant Human DLL4; 370 in experiment [14]. Moreover, the ECL signal was 416 in [15], 492 in experiment [16] and 392 in experiment [17].

B8: Fab VH1-46_IGHD6-6*01_IGHJ1*01 S102A/S103P/S104F/H111F (APFF) & L6_IGKJ1*01 S28K (Fab, V domains shown)
VH: QVQLVQSGAEVKKPGASVKVSCKASGYTFTSYYMHWVRQAPGQGLEWMGIINPSGGSTSYAQKFQGRVTMTRDTSTSTVYMELSSLRSEDTAVYYCAREEYAPFSAEYFQFWGQGTLVTVSS
VL: EIVLTQSPATLSLSPGERATLSCRASQKVSSYLAWYQQKPGQAPRLLIYDASNRATGIPARFSGSGSGTDFTLTISSLEPEDFAVYYCQQRSNWPPWTFGQGTKVEIKR
notes: Fab made in E. coli; the variable domains were cloned into Plasmid A (CH1, His and Flag tags) and Plasmid C (kappa CL); also called APFF / S28K
With B8, the ECL signal was 270 in [10]; 443 in experiment [11]; 355 in [12]; 464 in experiment [13]; 124000 in the experiment with Recombinant Human DLL4; 386 in experiment [14]. Moreover, the ECL signal in [15] was 395; in experiment [16], 477; in experiment [17], 348.
